Assay [1] addresses VEGF-B(10–108) (fusion protein) with thioredoxin, His tag and S tag (human). Kind of assay: SDS-PAGE and Western blot.
Assay [2] concerns the target VEGF-B(10–108), minimal receptor-binding domain of vascular endothelial growth factor-B (untagged dimer) (human). In words: crystal structure.

In assay [1], “VEGF-B(10–108) (fusion protein) with thioredoxin, His tag and S tag (domain or fragment)” yielded a stoichiometry N of 2.
On to “VEGF-B(10–108), minimal receptor-binding domain of vascular endothelial growth factor-B (untagged dimer) (domain or fragment)”, for which the stoichiometry N in assay [2] worked out at 2.

The values above are taken from publication PMC2911289.
